Patent publication US20210284747A1 (CAPELLA BIOSCIENCE, published 2021)
Like-named read-outs stand apart in the source and are kept apart here.

T1: Human LIGHT-32L, on II23 cells (human, UniProt O43557 1-240)
T1 construct: also called II23-LIGHT 32L
T1 chain: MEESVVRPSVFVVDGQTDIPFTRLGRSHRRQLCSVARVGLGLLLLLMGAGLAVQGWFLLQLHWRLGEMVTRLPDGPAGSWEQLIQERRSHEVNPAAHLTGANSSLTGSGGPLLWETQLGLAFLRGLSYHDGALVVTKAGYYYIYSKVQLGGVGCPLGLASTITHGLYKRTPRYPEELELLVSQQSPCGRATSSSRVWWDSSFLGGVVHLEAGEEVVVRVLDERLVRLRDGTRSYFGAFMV


Key:
[1] = target: LIGHT without residues 81-84, stably expressed on EL4 cells (EL4-NC-LIGHT); assay: cell-based or functional assay
[2] = target: T2, Human LIGHT stably expressed on EL4 cells (EL4-LIGHT) (human, UniProt O43557 1-240); assay: flow cytometry, against F19 and F23
T2 construct: whole, on cells; also called membrane LIGHT

[3] = target: T2, Human LIGHT stably expressed on EL4 …; assay: flow cytometry, EL4-LIGHT cells
Procedure: The EC50 of the 7 mAbs were calculated from binding to EL4-LIGHT cells (FIG. 1). […] Non-linear regression analysis was performed to determine the functional binding affinity measurement or EC50 for each mAb. A range of functional affinities was observed.

[4] = target: Full length LIGHT G188A on HEK293FF cells (Homo sapiens (Human), UniProt O43557 1-240); assay: flow cytometry, HEK293FF, mAb at EC50
Procedure: (§1) The day of transfection the cells were seeded in a 24-well plate at 0.6×10⁶ cells/well. Lipofectamine 2000 (ThermoFisher scientific), 3 ul, was mixed with 50 μl OptiMEM medium (GIBCO) and then added to 50 μl Opti-MEM medium containing 3 ug plasmid DNA and incubated for 20 min at RT to form DNA-Lipofectamine 2000 complexes which were then added to the HEK293FF cells and incubated at 37° C., 5% CO₂ for 24 hours. For each construct, in duplicate, 0.60×10⁶ cells/well were used in a 96 well round bottom plate. Cells were centrifuged for 3 minutes at 300×g at 4° C., the supernatant discarded and the cells washed with 150 μl FACS buffer (0.5% FBS in phosphate buffered saline). This process was repeated 3 times. […] The wells were washed 3 times as above and 50 μl/well of goat anti-human IgG FITC (1:1500 dilution in FACS buffer, SIGMA F9512-2ML) or goat anti-mouse APC (1/500 dilution in FACS buffer, BDBioscience 550826), as appropriate, was added to the wells and incubated for 30 min at 4° C. protected from the light, with shaking. The cells were then washed as above, resuspended in 100 μl of FACS buffer and binding of the antibodies to the constructs was measured using flow cytometry and a total of 10,000 cells were acquired for each sample. Controls of buffer and secondary antibody only as well as HEK293FF non transfected cells were also used.

[5] = target: Full length LIGHT R189A on HEK293FF cells (Homo sapiens (Human), UniProt O43557 1-240); assay: flow cytometry, HEK293FF, mAb at EC50
Procedure: as §1

[6] = target: Full length LIGHT A190S on HEK293FF cells (Homo sapiens (Human), UniProt O43557 1-240); assay: flow cytometry, HEK293FF, mAb at EC50
Procedure: as §1

[7] = target: Full length LIGHT T191A on HEK293FF cells (Homo sapiens (Human), UniProt O43557 1-240); assay: flow cytometry, HEK293FF, mAb at EC50
Procedure: as §1

[8] = target: Full length LIGHT S192A on HEK293FF cells (Homo sapiens (Human), UniProt O43557 1-240); assay: flow cytometry, HEK293FF, mAb at EC50
Procedure: as §1

[9] = target: Full length LIGHT S193A on HEK293FF cells (Homo sapiens (Human), UniProt O43557 1-240); assay: flow cytometry, HEK293FF, mAb at EC50
Procedure: as §1

[10] = target: Full length LIGHT S194A on HEK293FF cells (Homo sapiens (Human), UniProt O43557 1-240); assay: flow cytometry, HEK293FF, mAb at EC50
Procedure: as §1

[11] = target: Full length LIGHT R195A on HEK293FF cells (Homo sapiens (Human), UniProt O43557 1-240); assay: flow cytometry, HEK293FF, mAb at EC50
Procedure: as §1

[12] = target: Full length LIGHT V196A on HEK293FF cells (Homo sapiens (Human), UniProt O43557 1-240); assay: flow cytometry, HEK293FF, mAb at EC50
Procedure: as §1

[13] = target: Full length LIGHT W197A on HEK293FF cells (Homo sapiens (Human), UniProt O43557 1-240); assay: flow cytometry, HEK293FF, mAb at EC50
Procedure: as §1

[14] = target: Full length LIGHT W198A on HEK293FF cells (Homo sapiens (Human), UniProt O43557 1-240); assay: flow cytometry, HEK293FF, mAb at EC50
Procedure: as §1

[15] = target: T1, Human LIGHT-32L, on II23 cells; assay: flow cytometry on II23-LIGHT 32L cells, 4 ug mAb in 100 uL, goat anti-human Fc gamma-PE; signal as % of the commercial anti-LIGHT-PE
Procedure: The cells were suspended at 1×10⁷ cells/ml and 100 uL aliquots were placed into wells of a 96-well plate, the cells spun down and washed in FACS buffer at 1800 rpm for 2 min. The cells were blocked with 1:100 dilution of anti-CD16/CD32 (eBioscience, San Diego, USA) in FACS buffer for 20 min at room temperature and then washed 1× in FACS buffer at 1800 rpm for 2 min. The cells were then resuspended in 100 uL FACS buffer+4 ug anti-membrane LIGHT mAbs or anti-LIGHT-PE (eBioscience, lot: E01621-1632) for 30 min in the dark at room temperature, followed by washing 1× in FACS buffer at 1800 rpm for 2 min and then resuspended in 100 uL FACS buffer plus 1:100 goat anti-human Fcγ-PE secondary antibody or no secondary antibody at 4° C. in the dark for 30 min. The cells were again washed 1× in FACS buffer at 1800 rpm for 2 min and fixed in 200 uL 2% paraformaldehyde overnight at 4° C. and read on a flow cytometer.

[16] = target: T2, Human LIGHT stably expressed on EL4 …; assay: flow cytometry, EL4-LIGHT cells; remark: listed apart in the source

T2 sequence (O43557 whole entry): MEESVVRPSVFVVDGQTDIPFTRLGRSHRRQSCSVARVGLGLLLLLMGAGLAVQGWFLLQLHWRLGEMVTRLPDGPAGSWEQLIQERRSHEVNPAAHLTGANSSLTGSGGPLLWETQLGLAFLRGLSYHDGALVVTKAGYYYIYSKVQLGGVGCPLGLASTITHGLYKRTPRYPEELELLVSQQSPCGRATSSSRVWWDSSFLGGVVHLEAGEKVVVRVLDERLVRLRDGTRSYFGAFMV
Sequence of Full length LIGHT S192A on HEK293FF cells (O43557 whole entry S192A): as the sequence (O43557 whole entry) above, with S192A counted along it
Sequence of Full length LIGHT R195A on HEK293FF cells (O43557 whole entry R195A): as the sequence (O43557 whole entry) above, with R195A counted along it
Sequence of Full length LIGHT S194A on HEK293FF cells (O43557 whole entry S194A): as the sequence (O43557 whole entry) above, with S194A counted along it
Sequence of Full length LIGHT T191A on HEK293FF cells (O43557 whole entry T191A): as the sequence (O43557 whole entry) above, with T191A counted along it
Sequence of Full length LIGHT R189A on HEK293FF cells (O43557 whole entry R189A): as the sequence (O43557 whole entry) above, with R189A counted along it
Sequence of Full length LIGHT W197A on HEK293FF cells (O43557 whole entry W197A): as the sequence (O43557 whole entry) above, with W197A counted along it
Sequence of Full length LIGHT G188A on HEK293FF cells (O43557 whole entry G188A): as the sequence (O43557 whole entry) above, with G188A counted along it
Sequence of Full length LIGHT A190S on HEK293FF cells (O43557 whole entry A190S): as the sequence (O43557 whole entry) above, with A190S counted along it
Sequence of Full length LIGHT W198A on HEK293FF cells (O43557 whole entry W198A): as the sequence (O43557 whole entry) above, with W198A counted along it

Binder | IC50, inhibition of IL-8 secretion, HT-29 + EL4-NC-LIGHT cells [1] | binding ratio, mAb to LIGHT trimer [2] | EC50 [3] | % of WT binding [4] | % of WT binding [5] | % of WT binding [6] | % of WT binding [7] | % of WT binding [8] | % of WT binding [9] | % of WT binding [10] | % of WT binding [11] | % of WT binding [12] | % of WT binding [13] | % of WT binding [14] | binding result [15] | EC50 [16]
2E08 chimeric IgG4 mAb (antibody, V domains shown, Chimeric human IgG4 (S-to-P, L-to-E) with human CL, as m1; also called Parental 2E08) VH: QVQMKESGAELVRPGVSVKISCKGSGYTFTDYAIHWVKQSHAKTLEWIGVISTYYGDASYNQKFKGKATMTVDKSSSTAYMELARLTSDDSAIYYCARSRGEYGNYDAMDYWGQGTSVTVSS VL: DIVLTQSPASLAVSLGQRATISCKASQSVDYDGDSYMNWYQQKPGQPPKLLIYAASNLESGIPARFSGSGSGTDFTLNIHPVEEEDAATYYCQQSNEDPLTFGAGTKLELK | 1.8 nM | 1 mAb per LIGHT trimer | 2.73 nM | 44% | 2% | 93% | 22% | 122% | 0% | 3% | 43% | 99% | 0% | 83% | binds | –
3A07 chimeric IgG4 mAb (antibody, V domains shown, Chimeric human IgG4 (S-to-P, L-to-E) with human CL, as m1; also called Parental 3A07) VH: QVQLQQSGAELVRPGAPVTLSCKASDYTFTDSEIHWVKQTPVHGLEWIGEIDPETGGTAYNQKFKGKATLTADKSSSTAYMELRSLTSEDSAVYYCSRETDYFFDYWGQGTTLTVSS VL: ENVLTQSPAIMSASPGEKVTMTCSASSSVSYMYWYQQRPGSSPRLLIYDTSNLASGVPVRFSGSGSGTSYSLTISRMEAEDAATYYCQQWSSYPLTFGSGTKLEIK | 2 nM | 1 mAb per LIGHT trimer | 0.133 nM | 5% | 0% | 47% | 4% | 41% | 0% | 1% | 15% | 77% | 1% | 82% | binds | –
3C10 chimeric IgG4 mAb (antibody, V domains shown, Chimeric human IgG4 (S-to-P, L-to-E) with human CL, as m1; also called Parental 3C10) VH: EVQLQQSGAELVRPGASVTLSCKASDYTFTDSEIHWVKQTPVHGLEWIGEIDPETGGTAYNQKFKGKATLTADKSSSTAYMELRSLTSEDSAVYYCSRETDYFFDYWGQGTTLTVSS VL: DVVMTQTPAIMSASPGEKVTMTCSASSSVSYMYWYQQKPGSSPRLLIYDTSNLASGVPVRFSGSGSGTSYSLTISRMEAEDAATYYCQQWSSYPLTFGAGTKLELK | 1.9 nM | 1 mAb per LIGHT trimer | 0.118 nM | 3% | 0% | 40% | 3% | 35% | 0% | 0% | 6% | 78% | 0% | 86% | binds | –
3B04_var3 (antibody, V domains shown, Human IgG4 (S241P, L248E, Kabat); also called 3B04VH3VK1) VH: QVQLVQSGAEVKKPGASVKVSCKASGYTFTDYEMHWVRQAPGQGLEWMGEIDPETGDTAYAQKFQGRVTLTADKSTSTAYMEFSSLRSEDTAVYYSCRETDYFFDYWGQGTLVTVSS VL: DIQMTQSPSSLSASVGDRVTITCGASENIYGALNWYQRKQGKAPQLLIYGATNLADGVSSRFSGSGSGRDYTLTISSLQPEDFATYYCQNVLTTPWTFGQGTKLEIKR | – | – | – | – | – | – | – | – | – | – | – | – | – | – | – | 0.32 nM
3B04_var7 (antibody, V domains shown, Human IgG4 (S241P, L248E, Kabat); also called 3B04VH3VK2) VH: QVQLVQSGAEVKKPGASVKVSCKASGYTFTDYEMHWVRQAPGQGLEWMGEIDPETGDTAYAQKFQGRVTLTADKSTSTAYMEFSSLRSEDTAVYYSCRETDYFFDYWGQGTLVTVSS VL: DIQMTQSPSSLSASVGDRVTITCGASENIYGALNWYQRKQGKAPKLLIYGATNLADGVPSRFSGSGSGRDYTLTISSLQPEDFATYYCQNVLTTPWTFGQGTKLEIKR | – | – | – | – | – | – | – | – | – | – | – | – | – | – | – | 0.23 nM
3B04_var11 (antibody, V domains shown, Human IgG4 (S241P, L248E, Kabat); also called 3B04VH3VK3) VH: QVQLVQSGAEVKKPGASVKVSCKASGYTFTDYEMHWVRQAPGQGLEWMGEIDPETGDTAYAQKFQGRVTLTADKSTSTAYMEFSSLRSEDTAVYYSCRETDYFFDYWGQGTLVTVSS VL: DIQMTQSPSSLSASVGDRVTITCGASENIYGALNWYQQKPGKAPKLLIYGATNLADGVPSRFSGSGSGRDYTLTISSLQPEDFATYYCQNVLTTPWTFGQGTKLEIKR | – | – | – | – | – | – | – | – | – | – | – | – | – | – | – | 0.37 nM
